The target in data set [1] is T1, PPARδ;RXRα (Homo sapiens;Homo sapiens?, UniProt Q03181;P19793 1-441;1-462, |). Description: EMSA.
The target of data set [2] is T1, PPARδ;RXRα. Description: competition.

T1 sequence (Q03181 whole entry, stated change not applied, chain 1 of 2): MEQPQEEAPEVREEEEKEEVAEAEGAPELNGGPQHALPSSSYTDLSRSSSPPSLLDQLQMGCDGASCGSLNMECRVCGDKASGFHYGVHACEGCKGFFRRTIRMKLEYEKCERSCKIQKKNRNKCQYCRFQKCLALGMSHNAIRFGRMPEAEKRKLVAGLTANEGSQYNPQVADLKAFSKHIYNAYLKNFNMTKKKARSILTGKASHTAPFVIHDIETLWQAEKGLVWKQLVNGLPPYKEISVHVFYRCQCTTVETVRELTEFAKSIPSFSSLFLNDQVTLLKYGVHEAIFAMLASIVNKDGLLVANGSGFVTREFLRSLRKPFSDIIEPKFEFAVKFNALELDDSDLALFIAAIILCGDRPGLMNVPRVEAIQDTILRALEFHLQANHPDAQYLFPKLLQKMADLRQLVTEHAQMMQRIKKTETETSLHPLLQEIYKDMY
T1 sequence (P19793 whole entry, stated change not applied, chain 2 of 2): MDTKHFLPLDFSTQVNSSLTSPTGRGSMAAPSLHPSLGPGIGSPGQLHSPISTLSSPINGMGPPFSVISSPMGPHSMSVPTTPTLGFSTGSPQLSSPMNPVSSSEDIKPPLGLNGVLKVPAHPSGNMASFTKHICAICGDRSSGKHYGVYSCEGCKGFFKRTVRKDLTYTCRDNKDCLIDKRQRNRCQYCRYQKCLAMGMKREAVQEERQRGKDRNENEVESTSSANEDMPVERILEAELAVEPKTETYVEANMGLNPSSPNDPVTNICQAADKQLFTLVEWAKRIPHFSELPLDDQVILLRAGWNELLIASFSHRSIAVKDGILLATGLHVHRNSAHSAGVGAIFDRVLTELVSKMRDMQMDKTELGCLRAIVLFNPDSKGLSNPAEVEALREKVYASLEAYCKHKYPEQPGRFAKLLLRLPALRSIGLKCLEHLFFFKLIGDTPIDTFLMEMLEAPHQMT

B1: LDLR-PPRE(WT) biotin probe (dsDNA)
DNA 1: TCTCTGTGGCTTAGGGGTTCAAGTTCAACTGTGAAAGCCC
DNA 2: GGGCTTTCACAGTTGAACTTGAACCCCTAAGCCACAGAGA
With B1, the binding result with PPARδ;RXRα [1] is “binds”.

B2: LDLR-PPRE(WT) unlabeled competitor (dsDNA)
DNA 1: B1 DNA 1
DNA 2: B1 DNA 2
As for B2, in the data set with PPARδ;RXRα [2], the binding result is given as “binds”.

The values above are taken from article PMC4894720.
